# Assay results taken from patent US8859223B1, “Compositions and methods for imaging beta-secretase activity in living cells and organisms” (Duke University, priority 2012, dated 2014).
# Square brackets hold non-standard residues; d marks the D form. Ends that are not written are not given here. 2Thi = N[C@@H](Cc1cccs1)C(=O)O; Nva = CCC[C@H](N)C(=O)O
# Key:
# BACE [1] = molecular target: T1, BACE (Homo sapiens, UniProt P56817); assay: Evaluation of peptides as BACE substrates (percent cleavage by LC-MS); assay type: biochemical; conditions: 10 hr incubation with BACE enzyme, determined by LC-MS
# T1 sequence (P56817 46-501): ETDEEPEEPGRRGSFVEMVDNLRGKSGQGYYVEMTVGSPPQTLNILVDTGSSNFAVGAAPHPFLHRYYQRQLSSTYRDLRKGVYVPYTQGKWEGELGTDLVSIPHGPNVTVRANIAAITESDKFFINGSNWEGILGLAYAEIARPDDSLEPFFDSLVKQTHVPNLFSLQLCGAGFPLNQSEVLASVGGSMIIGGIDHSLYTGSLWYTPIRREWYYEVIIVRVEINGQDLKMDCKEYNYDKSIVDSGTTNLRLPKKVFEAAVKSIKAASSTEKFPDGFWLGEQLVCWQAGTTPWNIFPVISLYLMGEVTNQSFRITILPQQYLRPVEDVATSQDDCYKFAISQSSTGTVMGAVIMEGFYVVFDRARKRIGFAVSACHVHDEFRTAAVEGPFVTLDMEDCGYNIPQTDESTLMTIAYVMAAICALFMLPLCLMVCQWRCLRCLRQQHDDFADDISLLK
# Method: In order to evaluate a range of peptide amino acid sequences as BACE substrates for the probes, the peptides shown below in Table II were incubated with BACE enzyme under conditions suitable for enzyme activity and the percent cleavage after 10 hr was determined by LC-MS. Thus, in addition to SEQ ID NO: 1 present in β-MAP, the peptide sequences corresponding to SEQ ID NO's: 2-6 and 10-11 can also be useful as BACE substrates in the BACE probes of the present disclosure. For example, the specific BACE substrate sequence can be chosen based on the level of cleavage desired for a particular use for which the probe will be utilized. In can be envisioned that a higher or a lower amount of BACE probe cleavage could be desirable based on the different uses of the BACE probes.
# BACE [2] = molecular target: T1, BACE; conditions: compared to wild type; cited from earlier work
Substance,Percent Cleavage after 10 hr Incubation with BACE (BACE [1]),increase in Kcat/KM (BACE [2])
EI(Thi)(Thi)-(Nva)AHF (EI[2Thi][2Thi][Nva]AHF) [BACE substrate polypeptide with unnatural amino acids thienyl and norvaline],25%,
EIDL-MVLD (EIDLMVLD) [BACE substrate polypeptide],20%,
EIDL-SSHD (EIDLSSHD) [BACE substrate polypeptide],5%,
EVNF-EVEF (EVNFEVEF) [BACE substrate polypeptide],85%,
EVNL-DAEF (EVNLDAEF) [BACE substrate polypeptide],50%,
EVNL-DAHF (EVNLDAHF) [BACE substrate polypeptide],50%,
Swedish mutant APP: amyloid precursor protein with the Swedish mutation,,60 fold

# Further lines, with some results ahead:
Percent Cleavage after 10 hr Incubation with BACE (BACE [1]),Substance,increase in Kcat/KM (BACE [2])
0.5%,APSL-DAHF (APSLDAHF) [peptide evaluated as BACE substrate],
Not Detected,ASNL-DAHF (ASNLDAHF) [peptide evaluated as BACE substrate],
1%,DETL-DAHF (DETLDAHF) [peptide evaluated as BACE substrate],
3.5%,EVNL-SSHD (EVNLSSHD) [BACE substrate polypeptide],
